# Results taken from the nanobody polyreactivity screen of Harvey et al. (2022).
# Assay: yeast display, Sf9 membrane polyspecificity reagent, FACS + sequencing; frameworks hold sequencing errors
# In short: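 Galactose-induced (36–48 hours) yeast carrying a synthetic nanobody display library were exposed to 10% biotinylated, detergent-solubilized Sf9 membrane reagent at 4 °C for 1 hour. FACS followed streptavidin microbead enrichment, using low and high (top ~1%) gates for expression (anti-HA) and reagent binding (streptavidin). Colony PCR, MiSeq 2 × 250 sequencing and CDR-length filtering followed. Labels for polyreactivity reflect the gate of origin.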
row,Sequence,polyreactivity (PSR sort gate)
1,QVQLVESGGGLVQAGGSLRLSCAASGRTLRGYAMGWYRQAPGKERELVAAISKGGGSTFYADSVKGRFTISRDNAKNTVYLQMNSLKPEDTAVYYCAADYYSYTYYLDFDYWGQGTQVTVSS,high polyreactivity
2,QVQLVESGGGLVQAGGSLRLSCAASGRTLRGYAMGWYRQAPGKERELVAAITWSGGSTYYADSVKGRFTISRDNAKNTVYLQMNSLKPEDTAVYYCNARSYPDLYDYWGQGTQVTVSS,low polyreactivity
3,QVQLVESGGGLVQAGGSLRLSCAASGRTLRKYAMGWYRQAPGKERELVAGFTGSAGSTYYADSVKGRFTISRDNAKNTVYLQMNSLKPEDTAVYYCAKSGLRYGFDYWGQGTQVTVSS,high polyreactivity
4,QVQLVESGGGLVQAGGSLRLSCAASGRTLRRYAMGWYRQAPGKERELVAAISRSGSSTYADSVKGRFTISRDNAKNTVSLQMNSLKPEDTAVYYCNAYQPRYGYWGQGTQVTVSS,high polyreactivity
5,QVQLVESGGGLVQAGGSLRLSCAASGRTLRSNAMGWYRQAPGKERELVAAISSNGGSTYYADSVKGRFTISRDNAKNTVYLQMNSLKPEDTAVYYCAALSYYYSDRMDYWGQGTQVSVSS,low polyreactivity
6,QVQLVESGGGLVQAGGSLRLSCAASGRTLRTYAMGWSRQAPGKERELVAAITSSGGRTYYADSVKGRFTISRDNAKNTVYLQMNSLKPEDTAVYYCAAARYYYGGDYWGQGTQVTVSS,high polyreactivity
7,QVQLVESGGGLVQAGGSLRLSCAASGRTLRTYGMGWYRQAPGKERELVARITIGGRTYYADSVKGRFTISRDNAKNTVYLQMNSLKPEDTAVYYCAARYAGGTSRILYGYWGQGTQVTVSS,high polyreactivity
8,QVQLVESGGGLVQAGGSLRLSCAASGRTLRWYAMGWYRQAPGKERELVAAINWSGTSTYYADSVKGRFTISRDNAKNTVYLQMNSLKPEDTAVYYCAKRVTWNYDWGQGTQVTVSS,high polyreactivity
9,QVQLVESGGGLVQAGGSLRLSCAASGRTLRYNTMGWYRQAPGKERELVAAITRSGTGTNYADSVKGRFTISRDNAKNTVYLQMNSLKPEDTAVYYCAAAPFPRRRYDYWGQGTQVTVSS,high polyreactivity
10,QVQLVESGGGLVQAGGSLRLSCAASGRTLRYYDMGWYRQEPGKEREIVAAISWSGVSTYYADSVKGRFTISRDNAKNTVYLQMNSMQPEDTAVYYCAVGYVLTGVFEARFDYWGQGTLVTVSS,high polyreactivity
11,QVQLVESGGGLVQAGGSLRLSCAASGRTLSNYAMGWSRQAPGKETELVAAISSSGSTNYADSVKGRFTISRDNAKNTVYLQMNSLKPEDTAVYYCAAESWFLRWYRYDYWGQGTQVSVSS,low polyreactivity
12,QVQLVESGGGLVQAGGSLRLSCAASGRTLSRYTMGWYRQAPGKERELVAAISTSGSTYYADSVKGRFTISRDNAKNTVYLQMNSLKPEDTAVYYCNAVRRYLQYATGYDYWGQGTQVTVSS,high polyreactivity
13,QVQLVESGGGLVQAGGSLRLSCAASGRTLSVYAMGWYRQAPGKERELVAAITWRGGSTYYADSVKGRFTISRDNAKNTVYLQMNSLKPEDTAVYYCAAEDYTYNGGGYEYWGQGTQVTVSS,low polyreactivity
14,QVQLVESGGGLVQAGGSLRLSCAASGRTLSVYAMGWYSQAPGKEMEFVAAISFSGGSTYYADSVKGRFTISRDNAKNTVYLQMNSQKPEDTAVYYCATAYPEFLSTTVGLLYLDDYWGQGTQVTVSS,low polyreactivity
15,QVQLVESGGGLVQAGGSLRLSCAASGRTLSYYAMGWYRQAPGKEREFVAAINWSGGSTYYADSVKGRFTISRDNAKNTVYLQMISLKPEDTAVYYCAAYRPYSSSEGDYWGQGTQVTVSS,high polyreactivity
16,QVQLVESGGGLVQAGGSLRLSCAASGRTLTRNAMAWYRQAPRTERELVAVITSSGSRTYYADSVKGRFTISRDNAKNTVYLQMNSLKPEDTAVYYCAAKVDASDVRRSRAGRYDYWGQGTQVTVSS,high polyreactivity
17,QVQLVESGGGLVQAGGSLRLSCAASGRTLTRYTMGWYRQAPGKERELVATISRSGGNTHYADSVKGRFTISRDNAKNTVYLQMNSLKPEDTAVYYCNAVRYAIYGYDYWGQGTQVTVSS,high polyreactivity
18,QVQLVESGGGLVQAGGSLRLSCAASGRTLVDYAMGWYRQAPGKERELVAAINFSGGSTNYADSVKGRFTISRDNAKNTVYLQMNSLKPEDTAVYYCNKEGRPDRDYWGQGTQVTVSS,low polyreactivity
19,QVQLVESGGGLVQAGGSLRLSCAASGRTLVKYAMGWYRQAPGKERELVAAITQRGGITYYADSVKGRFTISRDNAKNTVYLQMNSLKPEDTAVYYFAASLYSYRSPYTFYYWGQGTQVTVSS,high polyreactivity
20,QVQLVESGGGLVQAGGSLRLSCAASGRTLVRYAMGWYRQAPGKEREFVAGISYSGGSTYYADSVKGRFTISRDNAKNTVYLQMNSLKPEDTAVYYCAATTRGARKSGGNYWGQGTQVTVSS,high polyreactivity
21,QVQLVESGGGLVQAGGSLRLSCAASGRTLWLYAMGWYRQAPGKERELVAAITRSAGTTYYADSVKGRFTISRDNAKNTVYLQMNSLKPEDTAVYYCATRYPQSSLSTSSRSSSGYWGQGTQVTVSS,high polyreactivity
22,QVQLVESGGGLVQAGGSLRLSCAASGRTLWRYAMGWYRQAPGKERELVASIRSGGSTYYADSVKGRFTISRDNAKNTVYLQMNSLKPEDTAVYYCAARYYWGAEAGYYYWGQGTQVTVSS,high polyreactivity
23,QVQLVESGGGLVQAGGSLRLSCAASGRTLYFNAMGWYRQAAGKERELVASITNGGRTNYADSVKGRFTISRDNAKNTVYLQMNSLKPEDTAVYYCAKRTLCSRGVNYYWGQGTQVTVSS,high polyreactivity
24,QVQLVESGGGLVQAGGSLRLSCAASGRTLYGNAMGWYRQAPGKEREFVAAITRSGGTTYYADSVKGRFTISRDNAKNTVYLQMNSLKPEDTAVYYCATAFRGYTGLFYWGQGTQVTVSS,high polyreactivity
25,QVQLVESGGGLVQAGGSLRLSCAASGRTLYGYAMGWYRQAPGKERELVAAISESDGSTYADSVKGRFTISRDNAKNTVYLQMNSLKPEDTAVYYCAADYYWYALQDGYYTYGYTYDYWGQGSQVTVSS,low polyreactivity
26,QVQLVESGGGLVQAGGSLRLSCAASGRTLYGYAMGWYRQAPGKERELVAAISESDGSTYADSVKGRFTISRDNAKNTVYLQMNSLKPEDTAVYYCAADYYWYALQDGYYTYGYTYDYWGQGTQVTVSS,low polyreactivity
27,QVQLVESGGGLVQAGGSLRLSCAASGRTLYIYAMGWYRQAPGKERELVAAIRRIGGRTYYADSVKGRFTISRDNAKNTVYLQMNSLKPEDTAVYYCNARSYRLRFSEMDYWGQGTQVTVSS,high polyreactivity
28,QVQLVESGGGLVQAGGSLRLSCAASGRTLYKNTMGWYRPAPGKERELVAAINYSGGSTYYADSVKGRFTISRDNAKNTVYLQMNSLKPEDTAVYYCAADYYDSTGEYDYWGQGTQVTVSS,high polyreactivity
29,QVQLVESGGGLVQAGGSLRLSCAASGRTLYKYAMGWYRQAPGKERELVAAISRNGGSTYYADSVKGRFTISRDNAKNTVYLQMNSLKPEDTAVYYCNALSRYRIWSYGYWGQGTQVTVSS,high polyreactivity
30,QVQLVESGGGLVQAGGSLRLSCAASGRTLYRNAMGWYRQAPGKERELVAAISRSGGITYYADSVKGRFTISRDNAKNTVYLQMNSLKPEDTAVYYCAARYGRGVAPYGYWGQGTQVTVSS,high polyreactivity
